Laboratory results published in patent publication US20260085129A1 (ECO ANIMAL HEALTH, published 2026).

Experiments:
pCD163-SRCR1-9-huFc [1] = molecular target: T1, pCD163-SRCR1-9-huFc (porcine, UniProt Q2VL90 51-1028); test: Biacore 3000 SPR, antigen amine-coupled on CM5 chip, pH 7.4
T1 construct: Limits 51-1028 are those the description gives for CD163-SRCR1-9; also called porcine CD163 SRCR1 to SRCR9 (no PST2) with human Fc; soluble CD163; not shown: human Fc (huFc)
T1 sequence: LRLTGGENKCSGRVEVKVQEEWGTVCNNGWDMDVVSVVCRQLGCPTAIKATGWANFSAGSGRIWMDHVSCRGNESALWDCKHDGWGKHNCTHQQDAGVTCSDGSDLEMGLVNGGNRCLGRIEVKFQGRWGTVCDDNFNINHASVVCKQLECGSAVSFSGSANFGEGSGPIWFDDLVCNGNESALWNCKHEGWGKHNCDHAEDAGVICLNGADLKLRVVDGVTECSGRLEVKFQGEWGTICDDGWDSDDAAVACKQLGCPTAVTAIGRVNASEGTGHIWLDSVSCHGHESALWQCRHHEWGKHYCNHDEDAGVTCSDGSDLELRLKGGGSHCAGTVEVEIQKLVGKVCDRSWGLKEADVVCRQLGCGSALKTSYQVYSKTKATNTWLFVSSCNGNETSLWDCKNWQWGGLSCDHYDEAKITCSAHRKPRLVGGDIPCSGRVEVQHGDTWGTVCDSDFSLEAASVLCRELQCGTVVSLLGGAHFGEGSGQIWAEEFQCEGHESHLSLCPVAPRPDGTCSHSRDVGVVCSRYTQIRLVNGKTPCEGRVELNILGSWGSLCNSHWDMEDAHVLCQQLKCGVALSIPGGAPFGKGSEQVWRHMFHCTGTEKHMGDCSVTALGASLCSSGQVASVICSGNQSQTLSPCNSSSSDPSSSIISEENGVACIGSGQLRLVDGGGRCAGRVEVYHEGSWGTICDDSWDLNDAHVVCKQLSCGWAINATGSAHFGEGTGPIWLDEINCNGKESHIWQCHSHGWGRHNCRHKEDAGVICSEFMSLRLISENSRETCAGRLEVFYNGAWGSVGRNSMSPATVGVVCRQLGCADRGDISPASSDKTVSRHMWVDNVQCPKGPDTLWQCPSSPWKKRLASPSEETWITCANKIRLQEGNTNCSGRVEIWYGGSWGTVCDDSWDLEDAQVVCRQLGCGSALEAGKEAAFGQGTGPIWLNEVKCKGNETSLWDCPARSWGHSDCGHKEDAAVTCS

pCD163-SRCR1-9-huFc [2] = molecular target: T1, pCD163-SRCR1-9-huFc; test: P.E. binding ELISA, antigen coated at 1 ug/ml, anti-c-Myc detection
Procedure: (§1) For P.E. binding ELISA, MaxiSorp™ high protein-binding capacity 96 well ELISA plates, were coated with 1 μg/ml of pCD163-SRCR-FL-PST2-His or huCD6-pPST2-His, or pCD163-SRCR1-9-huFc protein, diluted in PBS, overnight at 4° C. The next day, plates were washed 3× with PBS Tween 0.05% (pH 7.4) and blocked for 1 hour at room temperature with 250 μl/well of 4% Marvel/PBS. After blocking, plates were washed 3× with PBS Tween 0.05% (pH7.4) and incubated per well with 20 μl of P.E+80 μl in 1% Marvel/PBS (pH7.4), for 1 hour at room temperature (RT) with shaking. Plates were washed 3× with PBS Tween 0.05% (pH7.4) and incubated with 100 μl of anti-c-Myc antibody (Roche; Cat. nr. 11667203001) followed by secondary antibody DAM-HRP (JIR; Cat. nr. 715-035-150) in 1% Marvel/PBS (pH7.4), for 1 hour at RT with shaking. Plates were washed 3× with PBS Tween 0.05% (pH7.4) and the substrate solution (TMB solution) was added to the plates. Reaction was stopped with H2SO4 and plates read in the plate reader at 450 nm.

pCD163-SRCR-FL-PST2-His = molecular target: T2, pCD163-SRCR-FL-PST2-His (porcine, UniProt Q2VL90 51-1044); test: as above
T2 construct: also called pCD163-1-PST2-His; pCD163-SRCR1-PST2; not shown: His tag
T2 sequence: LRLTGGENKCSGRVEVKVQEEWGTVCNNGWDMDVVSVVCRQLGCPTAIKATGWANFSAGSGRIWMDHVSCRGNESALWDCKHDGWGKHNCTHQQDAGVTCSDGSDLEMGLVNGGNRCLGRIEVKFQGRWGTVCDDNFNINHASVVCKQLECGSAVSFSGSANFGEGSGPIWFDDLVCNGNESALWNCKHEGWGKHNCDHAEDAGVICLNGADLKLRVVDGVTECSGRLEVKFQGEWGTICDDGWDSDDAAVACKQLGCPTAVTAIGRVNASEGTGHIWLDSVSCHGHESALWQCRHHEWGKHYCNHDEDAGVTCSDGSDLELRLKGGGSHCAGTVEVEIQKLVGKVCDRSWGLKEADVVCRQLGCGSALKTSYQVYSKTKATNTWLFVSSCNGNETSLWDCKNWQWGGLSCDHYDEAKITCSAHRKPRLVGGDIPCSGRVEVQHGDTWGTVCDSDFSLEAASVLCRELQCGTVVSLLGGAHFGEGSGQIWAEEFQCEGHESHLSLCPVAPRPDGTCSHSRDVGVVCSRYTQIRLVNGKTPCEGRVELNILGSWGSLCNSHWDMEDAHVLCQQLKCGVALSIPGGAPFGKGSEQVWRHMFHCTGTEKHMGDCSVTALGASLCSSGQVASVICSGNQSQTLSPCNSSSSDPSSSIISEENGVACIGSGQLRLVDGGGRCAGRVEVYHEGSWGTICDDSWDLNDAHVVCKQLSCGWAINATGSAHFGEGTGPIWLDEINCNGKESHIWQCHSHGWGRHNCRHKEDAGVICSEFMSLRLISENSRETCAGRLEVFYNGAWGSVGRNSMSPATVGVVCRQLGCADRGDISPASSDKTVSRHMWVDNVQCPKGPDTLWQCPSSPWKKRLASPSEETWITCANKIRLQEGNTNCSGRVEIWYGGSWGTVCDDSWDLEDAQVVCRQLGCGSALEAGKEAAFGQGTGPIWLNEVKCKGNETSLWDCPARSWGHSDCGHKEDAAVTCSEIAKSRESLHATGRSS
Procedure: as §1

huCD6-pPST2-His = molecular target: T3, huCD6-pPST2-His (human, UniProt P30203 18-402); test: as above
T3 construct: composition read from the name; not shown: His tag
T3 sequence (P30203 whole entry): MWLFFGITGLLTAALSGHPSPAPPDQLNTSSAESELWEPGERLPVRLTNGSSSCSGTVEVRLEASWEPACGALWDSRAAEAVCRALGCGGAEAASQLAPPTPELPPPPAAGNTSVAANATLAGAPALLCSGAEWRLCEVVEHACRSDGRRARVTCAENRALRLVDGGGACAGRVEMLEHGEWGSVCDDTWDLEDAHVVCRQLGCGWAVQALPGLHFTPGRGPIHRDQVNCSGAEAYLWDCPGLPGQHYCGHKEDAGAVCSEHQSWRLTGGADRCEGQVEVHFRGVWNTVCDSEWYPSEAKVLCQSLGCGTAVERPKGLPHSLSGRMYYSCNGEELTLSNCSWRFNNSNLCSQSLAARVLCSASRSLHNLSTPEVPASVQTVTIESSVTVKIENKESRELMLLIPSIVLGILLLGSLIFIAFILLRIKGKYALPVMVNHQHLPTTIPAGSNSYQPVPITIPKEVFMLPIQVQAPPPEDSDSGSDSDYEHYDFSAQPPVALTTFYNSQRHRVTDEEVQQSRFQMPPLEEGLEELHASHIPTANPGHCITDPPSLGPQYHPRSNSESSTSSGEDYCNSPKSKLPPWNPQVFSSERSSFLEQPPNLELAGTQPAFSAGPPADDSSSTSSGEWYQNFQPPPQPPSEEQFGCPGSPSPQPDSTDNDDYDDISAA
Procedure: as §1

B1: Clone 39-H17B11 VHH antibody (VHH)
VHH: QVQLVESGGGLVQAGGSLRLSCAASGRTFSSYAMGWFRQTPGKDREFVARIGWTGGTTIYADSVKGRFTISRDNAKNTVYLQMNSLKPEDTAVYYCAADQAGWRTAGVRNTYEYDYWGQGTQVTVSS
notes: Llama single domain antibody; also called clone 17B11; not shown: tags: c-myc tag on the soluble VHH in periplasmic extracts; FLAG and His tags on the purified VHH
Does B1 bind (pCD163-SRCR1-9-huFc [1])?
Result: no binding (tested: 200 nM (highest VHH concentration))

And the “O.D. 450 nm” value (pCD163-SRCR1-9-huFc [2])?
Its value is 0.091 O.D. 450 nm.

What about the “O.D. 450 nm” value (pCD163-SRCR-FL-PST2-His) of the same binder?
Its value is 0.066 O.D. 450 nm.

What about the “O.D. 450 nm” value (huCD6-pPST2-His) of the same binder?
The value was 0.052 O.D. 450 nm.
